Each block holds one binder with its values, some of them ahead of it.
Assays:
mD1-D2-HPC4 fragment = biological target: T1, mD1-D2-HPC4 fragment (murine, UniProt Q8CIZ8 23-762); assay: ELISA, sdAb immobilized
T1 construct: range 23-762
Procedure: (§1) Wells were then washed three times with 75 μl/well using TBS-T. Residual peroxidase activity was detected by measuring peroxidase-mediated hydrolysis of 3,3′,5,5′-tetramethylbenzidine.
(§2) Negative binding (−) was defined as optical density (OD) being ≤0.5, moderate positive binding (+) was defined as OD being >0.5 and <1.0, strongly positive binding (++) was defined as OD being ≥1.0.

[1] = biological target: T2, purified recombinant murine VWF (murine, UniProt Q8CIZ8 764-2813); assay: ELISA, sdAb immobilized
T2 construct: also called rmVWF
Procedure: as §1, §2

OD (mD1-D2-HPC4 fragment): ≤ 0.5 od
B1: sdAb KB-VWF-013 (VHH)
VHH: QVQLVQSGGGLVQAGDSLRLSCAASGRTFIRYAMAWFRQAPGKEREFVAAIPQSGGRSYYADSVKGRFTISRDNAKNTVYLQMNSLKPEDTAVYSCAATSTYYGRSAYSSHSGGYDYWGQGTQVTVSS
notes: Single-domain antibody against the VWF D'D3 domain; no tag stated

OD (mD1-D2-HPC4 fragment): ≤ 0.5 od | OD [1]: ≤ 0.5 od
B2: sdAb KB-VWF-011 (VHH)
VHH: QVQLVQSGGGLVQAGDSLRLSCAASGGTFSNYAMGWFRQTPGKEREFVARISRSGHRTDYADSAKGRFTISRDNAKNTVYLQMNSLKPEDTAVYYCAARSDWSIATTATSYDYWGQGTQVTVSS
notes: as for B1

Reference: patent publication US20200207869A1 (INSERM INSTITUT NATIONAL DE LA SANTE ET DE LA RECHERCHE …, published 2020)
